Data: PMC6357863, “Dithiocarbamate-inspired side chain stapling chemistry for peptide drug design” (Chemical Science, 2018)

Test: circular dichroism
Conditions: phosphate buffer (PB); pH 7.2; 20 °C; 10-50 uM

Structure (SMILES)	helicity [%]
CC(=O)N[C@H](C(=O)N[C@@H](CO)C(=O)N[C@@H](Cc1ccccc1)C(=O)N[C@@H](C)C(=O)N[C@@H](CCC(=O)O)C(=O)N[C@@H](Cc1ccc(O)cc1)C(=O)N[C@@H](Cc1c[nH]c2ccccc12)C(=O)N[C@H]1CCCCNC(=S)SC[C@@H](C(N)=O)NC(=O)[C@H](CO)NC(=O)[C@H](CC(C)C)NC(=O)[C@H](CC(C)C)NC1=O)[C@@H](C)O	43.3
CC(=O)N[C@H](C(=O)N[C@@H](CO)C(=O)N[C@@H](Cc1ccccc1)C(=O)N[C@@H](C)C(=O)N[C@@H](CCC(=O)O)C(=O)N[C@@H](Cc1ccc(O)cc1)C(=O)N[C@@H](Cc1c[nH]c2ccccc12)C(=O)N[C@H]1CSC(=S)NCCCC[C@@H](C(N)=O)NC(=O)[C@H](CO)NC(=O)[C@H](CC(C)C)NC(=O)[C@H](CC(C)C)NC1=O)[C@@H](C)O	0.23
CC(=O)N[C@H](C(=O)N[C@@H](CO)C(=O)N[C@@H](Cc1ccccc1)C(=O)N[C@@H](C)C(=O)N[C@H]1CCCCNC(=S)SC[C@@H](C(=O)N[C@@H](CC(C)C)C(=O)N[C@@H](CO)C(=O)N2CCC[C@H]2C(N)=O)NC(=O)[C@H](CC(N)=O)NC(=O)[C@H](Cc2c[nH]c3ccccc23)NC(=O)[C@H](Cc2ccc(O)cc2)NC1=O)[C@@H](C)O	6.88
CC(=O)N[C@H](C(=O)N[C@@H](CO)C(=O)N[C@@H](Cc1ccccc1)C(=O)N[C@@H](C)C(=O)N[C@H]1CSC(=S)NCCCC[C@@H](C(=O)N[C@@H](CC(C)C)C(=O)N[C@@H](CO)C(=O)N2CCC[C@H]2C(N)=O)NC(=O)[C@H](CC(N)=O)NC(=O)[C@H](Cc2c[nH]c3ccccc23)NC(=O)[C@H](Cc2ccc(O)cc2)NC1=O)[C@@H](C)O	9.58
CC(=O)N[C@H](C(=O)N[C@@H](CO)C(=O)N[C@@H](Cc1ccccc1)C(=O)N[C@H]1CCCCNC(=S)SC[C@@H](C(=O)N[C@@H](CC(C)C)C(=O)N[C@@H](CC(C)C)C(=O)N[C@@H](CO)C(=O)N2CCC[C@H]2C(N)=O)NC(=O)[C@H](Cc2c[nH]c3ccccc23)NC(=O)[C@H](Cc2ccc(O)cc2)NC(=O)[C@H](CCC(=O)O)NC1=O)[C@@H](C)O	39.3
CC(=O)N[C@H](C(=O)N[C@@H](CO)C(=O)N[C@@H](Cc1ccccc1)C(=O)N[C@H]1CSC(=S)NCCCC[C@@H](C(=O)N[C@@H](CC(C)C)C(=O)N[C@@H](CC(C)C)C(=O)N[C@@H](CO)C(=O)N2CCC[C@H]2C(N)=O)NC(=O)[C@H](Cc2c[nH]c3ccccc23)NC(=O)[C@H](Cc2ccc(O)cc2)NC(=O)[C@H](CCC(=O)O)NC1=O)[C@@H](C)O	9.15
CC(=O)N[C@H](C(=O)N[C@H]1CCCCNC(=S)SC[C@@H](C(=O)N[C@@H](Cc2c[nH]c3ccccc23)C(=O)N[C@@H](CC(N)=O)C(=O)N[C@@H](CC(C)C)C(=O)N[C@@H](CC(C)C)C(=O)N[C@@H](CO)C(=O)N2CCC[C@H]2C(N)=O)NC(=O)[C@H](CCC(=O)O)NC(=O)[C@H](C)NC(=O)[C@H](Cc2ccccc2)NC1=O)[C@@H](C)O	15.3
CC(=O)N[C@H](C(=O)N[C@H]1CSC(=S)NCCCC[C@@H](C(=O)N[C@@H](Cc2c[nH]c3ccccc23)C(=O)N[C@@H](CC(N)=O)C(=O)N[C@@H](CC(C)C)C(=O)N[C@@H](CC(C)C)C(=O)N[C@@H](CO)C(=O)N2CCC[C@H]2C(N)=O)NC(=O)[C@H](CCC(=O)O)NC(=O)[C@H](C)NC(=O)[C@H](Cc2ccccc2)NC1=O)[C@@H](C)O	4.81
CC(=O)N[C@H]1CSC(=S)NCCCC[C@@H](C(=O)N[C@@H](Cc2ccc(O)cc2)C(=O)N[C@@H](Cc2c[nH]c3ccccc23)C(=O)N[C@@H](CC(N)=O)C(=O)N[C@@H](CC(C)C)C(=O)N[C@@H](CC(C)C)C(=O)N[C@@H](CO)C(=O)N2CCC[C@H]2C(N)=O)NC(=O)[C@H](C)NC(=O)[C@H](Cc2ccccc2)NC(=O)[C@H](CO)NC1=O	8.38

Test: Dithiocarbamate (DTC) stapling of unprotected peptides: Lys side-chain amine + CS2 (Et3N) gives Lys-NH-C(=S)S-, then intramolecular thia-Michael addition to dehydroalanine (Dha, made beforehand from Cys with 2,5-dibromohexanediamide and HPLC-purified)
Conditions: the molecule shown is the open-chain precursor, 21-membered ring, ethanol/Et3N/CS2 10:1:1 v/v

Structure (SMILES)	ring closure, isolated yield [%]
C=C(NC(C)=O)C(=O)N[C@@H](CO)C(=O)N[C@@H](Cc1ccccc1)C(=O)N[C@@H](C)C(=O)N[C@@H](CCCCNC(=S)S)C(=O)N[C@@H](Cc1ccc(O)cc1)C(=O)N[C@@H](Cc1c[nH]c2ccccc12)C(=O)N[C@@H](CC(N)=O)C(=O)N[C@@H](CC(C)C)C(=O)N[C@@H](CC(C)C)C(=O)N[C@@H](CO)C(=O)N1CCC[C@H]1C(N)=O [Ac-Dha-Ser-Phe-Ala-Lys-Tyr-Trp-Asn-Leu-Leu-Ser-Pro-NH2]	37
C=C(NC(=O)[C@H](C)NC(=O)[C@H](Cc1ccccc1)NC(=O)[C@H](CO)NC(=O)[C@H](CCCCNC(=S)S)NC(C)=O)C(=O)N[C@@H](Cc1ccc(O)cc1)C(=O)N[C@@H](Cc1c[nH]c2ccccc12)C(=O)N[C@@H](CC(N)=O)C(=O)N[C@@H](CC(C)C)C(=O)N[C@@H](CC(C)C)C(=O)N[C@@H](CO)C(=O)N1CCC[C@H]1C(N)=O [Ac-Lys-Ser-Phe-Ala-Dha-Tyr-Trp-Asn-Leu-Leu-Ser-Pro-NH2]	28
C=C(NC(=O)[C@@H](NC(C)=O)[C@@H](C)O)C(=O)N[C@@H](Cc1ccccc1)C(=O)N[C@@H](C)C(=O)N[C@@H](CCC(=O)O)C(=O)N[C@@H](CCCCNC(=S)S)C(=O)N[C@@H](Cc1c[nH]c2ccccc12)C(=O)N[C@@H](CC(N)=O)C(=O)N[C@@H](CC(C)C)C(=O)N[C@@H](CC(C)C)C(=O)N[C@@H](CO)C(=O)N1CCC[C@H]1C(N)=O [Ac-Thr-Dha-Phe-Ala-Glu-Lys-Trp-Asn-Leu-Leu-Ser-Pro-NH2]	39
C=C(NC(=O)[C@H](CCC(=O)O)NC(=O)[C@H](C)NC(=O)[C@H](Cc1ccccc1)NC(=O)[C@H](CCCCNC(=S)S)NC(=O)[C@@H](NC(C)=O)[C@@H](C)O)C(=O)N[C@@H](Cc1c[nH]c2ccccc12)C(=O)N[C@@H](CC(N)=O)C(=O)N[C@@H](CC(C)C)C(=O)N[C@@H](CC(C)C)C(=O)N[C@@H](CO)C(=O)N1CCC[C@H]1C(N)=O [Ac-Thr-Lys-Phe-Ala-Glu-Dha-Trp-Asn-Leu-Leu-Ser-Pro-NH2]	34
C=C(NC(=O)[C@H](C)NC(=O)[C@H](Cc1ccccc1)NC(=O)[C@H](CO)NC(=O)[C@@H](NC(C)=O)[C@@H](C)O)C(=O)N[C@@H](Cc1ccc(O)cc1)C(=O)N[C@@H](Cc1c[nH]c2ccccc12)C(=O)N[C@@H](CC(N)=O)C(=O)N[C@@H](CCCCNC(=S)S)C(=O)N[C@@H](CC(C)C)C(=O)N[C@@H](CO)C(=O)N1CCC[C@H]1C(N)=O [Ac-Thr-Ser-Phe-Ala-Dha-Tyr-Trp-Asn-Lys-Leu-Ser-Pro-NH2]	27
C=C(NC(=O)[C@H](CC(N)=O)NC(=O)[C@H](Cc1c[nH]c2ccccc12)NC(=O)[C@H](Cc1ccc(O)cc1)NC(=O)[C@H](CCCCNC(=S)S)NC(=O)[C@H](C)NC(=O)[C@H](Cc1ccccc1)NC(=O)[C@H](CO)NC(=O)[C@@H](NC(C)=O)[C@@H](C)O)C(=O)N[C@@H](CC(C)C)C(=O)N[C@@H](CO)C(=O)N1CCC[C@H]1C(N)=O [Ac-Thr-Ser-Phe-Ala-Lys-Tyr-Trp-Asn-Dha-Leu-Ser-Pro-NH2]	24
C=C(NC(=O)[C@H](Cc1ccccc1)NC(=O)[C@H](CO)NC(=O)[C@@H](NC(C)=O)[C@@H](C)O)C(=O)N[C@@H](CCC(=O)O)C(=O)N[C@@H](Cc1ccc(O)cc1)C(=O)N[C@@H](Cc1c[nH]c2ccccc12)C(=O)N[C@@H](CCCCNC(=S)S)C(=O)N[C@@H](CC(C)C)C(=O)N[C@@H](CC(C)C)C(=O)N[C@@H](CO)C(=O)N1CCC[C@H]1C(N)=O [Ac-Thr-Ser-Phe-Dha-Glu-Tyr-Trp-Lys-Leu-Leu-Ser-Pro-NH2]	33
